Reference: patent US20170342107A1
Square brackets hold non-standard residues; d marks the D form. Phe(4-I) = N[C@@H](Cc1ccc(I)cc1)C(=O)O

Key:
[1] = biological target: mouse melanocortin-3 receptor (mouse) (UniProt P33033); test: 125I-NDP-MSH competitive displacement, HEK293 cells stably expressing mMC3R
[2] = biological target: mouse melanocortin-4 receptor (mouse) (UniProt P56450); test: 125I-NDP-MSH competitive displacement, HEK293 cells stably expressing mMC4R
[3] = biological target: mouse melanocortin-3 receptor (mouse) (UniProt P33033); test: cell-based or functional assay
[4] = biological target: mouse melanocortin-4 receptor (mouse) (UniProt P56450); test: cell-based or functional assay
[5] = biological target: mouse melanocortin-4 receptor (mouse) (UniProt P56450); test: 125I-NDP-MSH competitive displacement, HEK293 cells stably expressing mMC4R; here negative = weaker binder than SKY4-48-1

mouse melanocortin-4 receptor (mouse), sequence (P56450 whole entry): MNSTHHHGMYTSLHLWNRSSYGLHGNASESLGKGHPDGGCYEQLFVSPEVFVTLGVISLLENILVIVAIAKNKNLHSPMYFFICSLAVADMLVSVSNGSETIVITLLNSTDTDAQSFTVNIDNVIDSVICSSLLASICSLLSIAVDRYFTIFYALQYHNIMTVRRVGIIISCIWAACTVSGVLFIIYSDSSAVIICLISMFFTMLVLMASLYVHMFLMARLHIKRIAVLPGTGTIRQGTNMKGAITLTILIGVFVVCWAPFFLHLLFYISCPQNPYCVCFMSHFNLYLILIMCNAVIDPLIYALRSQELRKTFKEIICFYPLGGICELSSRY
mouse melanocortin-3 receptor (mouse), sequence (P33033 whole entry): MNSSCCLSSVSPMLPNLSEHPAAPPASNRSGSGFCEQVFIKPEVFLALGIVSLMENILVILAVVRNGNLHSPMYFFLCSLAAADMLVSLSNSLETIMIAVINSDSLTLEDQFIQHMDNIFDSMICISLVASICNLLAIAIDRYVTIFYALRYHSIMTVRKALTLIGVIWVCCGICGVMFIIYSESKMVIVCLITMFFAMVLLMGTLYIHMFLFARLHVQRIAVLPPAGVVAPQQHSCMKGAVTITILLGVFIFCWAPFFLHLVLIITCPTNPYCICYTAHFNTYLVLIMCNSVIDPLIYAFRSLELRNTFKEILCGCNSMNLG

Fold Diff. (IC50 against SKY4-48-1) [1]: 14 fold
IC50 [1]: 3.5 µM
IC50 [2]: 39.5 µM
Agonist Activity EC50 [3]: > 100 µM
Antagonist Activity K [3]: 400 nM
Antagonist Ki [3]: 0.398 µM
pA2 (antagonist) [3]: 6.4 pA2
Agonist Activity, % stimulation relative to maximum [4]: 16 % @ 100 µM
Agonist, % of NDP-MSH maximal response [4]: 16 % @ 100 µM
Antagonist Ki [4]: > 3.1 µM
Fold Diff. (IC50 against SKY4-48-1) [5]: -326 fold
B1: SKY5-122-2, Ac-DPhe-(pI)Phe-DArg-DHis-NH2 (peptide)
peptide: Ac-[dF][Phe(4-I)][dR][dH]-NH2
SMILES: CC(=O)N[C@H](Cc1ccccc1)C(=O)N[C@@H](Cc1ccc(I)cc1)C(=O)N[C@H](CCCNC(=N)N)C(=O)N[C@H](Cc1c[nH]cn1)C(N)=O
